From paper PMC12134289 (Nature Communications, 2025)

Target: T1, extended S2 fusion intermediate of the SARS-CoV-2 spike (after S1 dissociation) (SARS-CoV-2, Victoria (probably …, UniProt P0DTC2, strain))
T1 construct: A conformational and proteolytic state of m1, seen between the virion and ACE2VLP membranes; also called extended intermediate; extended S2 intermediate
Test: cryo-electron tomography; virions pre-incubated with WS6 (200 ug/ml, 1 h, 37 °C), then ACE2VLPs and trypsin for 30 min at 37 °C, PFA-fixed
Details: one partner purified

B1: WS6 S2 stem-helix broadly neutralizing antibody (antibody, V domains shown)
VH: EVQFQQSGTVLARPGASVKMSCKASGYTFTNYWIHWVKQRPGQGLEYIGGTYPGNGDTTYNQKFKGKAKVTAVTPTSTAYMDLSSLTNEDSAVYYCTRTGSYFDYWGQGTTLTVSS
VL: QIVLTQSPAIMSASPGEKVTISCSATSSVSYIYWYQQRPGSSPKPWIYRTSNLASGVPVRFSGSGSGTSYSLTISNMEAEDAATYYCQQYQSYPPTFGAGTKLELK
notes: mouse-derived antibody; Whole antibody with two arms was used (200 ug/ml in PBS); also called WS6 S2 antibody; spike stalk antibody WS6; copies: 2 + 2
**Q.** Does B1 bind?
**A.** Result: binds
